Assay results published in patent US20060134087A1, “ITI-D1 Kunitz domain mutants as hNE inhibitors” (Dyax Corp., priority 1988, published 2006).
“Also recorded” adds a separate entry of the source. Like-named read-outs stand apart in the source and are kept apart here.

Assays:
[1] = molecular target: T1, Elastase (porcine pancreas) (Sus scrofa, UniProt P00772); conditions: BPTI P1 derivatives, cited from earlier work
T1 construct: host or cells: porcine pancreas

hCG = molecular target: T2, hCG (Homo sapiens, UniProt P08311); conditions: cited from earlier work
T2 sequence (P08311 21-255): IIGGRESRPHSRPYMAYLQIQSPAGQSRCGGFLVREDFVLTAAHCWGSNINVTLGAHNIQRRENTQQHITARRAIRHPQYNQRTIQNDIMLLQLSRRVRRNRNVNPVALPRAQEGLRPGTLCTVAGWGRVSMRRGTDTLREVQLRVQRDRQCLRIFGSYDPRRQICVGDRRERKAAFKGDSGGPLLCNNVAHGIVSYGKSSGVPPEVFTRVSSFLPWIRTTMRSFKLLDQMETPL

hNE [2] = molecular target: T3, hNE (Homo sapiens, UniProt P08246); assay: Kinetic on-rate of inhibitors reacting with hNE (progressive inhibition); format: biochemical; conditions: for kon: [hNE] = 8.47 × 10^−10 molar; for koff: calculated from koff = KD × kon
T3 sequence (P08246 30-267): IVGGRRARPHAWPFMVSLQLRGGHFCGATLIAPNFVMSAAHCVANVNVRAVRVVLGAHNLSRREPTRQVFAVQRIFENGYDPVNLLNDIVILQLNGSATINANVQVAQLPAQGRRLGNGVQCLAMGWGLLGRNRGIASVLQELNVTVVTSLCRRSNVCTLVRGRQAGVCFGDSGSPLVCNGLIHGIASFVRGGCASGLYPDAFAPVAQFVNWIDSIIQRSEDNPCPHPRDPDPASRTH
Method: The kinetic on-rates for the inhibitors reacting with hNE (kon) were determined from measurements of progressive inhibition of substrate hydrolytic activity by hNE following addition of inhibitor. For these experiments, a known concentration of inhibitor was added to a solution of hNE (0.847 nM) and substrate (25 μM) in 2 ml of reaction buffer in a plastic fluorescence cuvette. The change in fluorescence was recorded continuously following addition of the inhibitor. […] The enzymatic rate at selected times following addition of the inhibitor was determined from the slope of the tangent to the fluorescence time course at that time.
The kinetic constant kon for EPI-HNE-2 reacting with hNE was determined as follows. EPI-HNE-2 at 1.3 nM was added to buffer containing 0.867 nM hNE (I:E=1.5:1) at time 0. Measured percent residual activity was recorded as a function of time after addition of inhibitor. A least-squares fit program was used to obtain the value of kon=4.0×10^6 M^−1s^−1.
The kinetic off rate, koff, is calculated from the measured values of Ki and kon as: […] The values from such measurements are included in Table 30. The EPI-HNE proteins are small, high affinity, fast acting inhibitors of hNE. B. Specificity.

hNE [3] = molecular target: T3, hNE; assay: Resistance to oxidative inactivation by Chloramine-T, residual hNE-inhibition activity; format: physicochemical; conditions: for Percent Residual hNE-Inhibitory Activity: 20 minutes at RT
Method: At the end of the incubation period, the oxidation reactions were quenched by adding methionine to a final concentration of 4 mM. After a further 10 minute incubation, the quenched reactions were diluted and assayed for residual inhibitor activity in our standard hNE-inhibition assay.
Inhibitors were incubated in the presence of Chloramine-T at the molar ratios indicated for 20 minutes at RT. Oxidation reactions were quenched by adding methionine to a final concentration of 4 mM. Residual hNE-inhibition activity remaining in the quenched reactions is shown as a percentage of the activity observed with no added oxidant.

hNE [4] = molecular target: T3, hNE; assay: pH stability, residual hNE inhibitory activity; format: physicochemical; conditions: 37° C., 18 hours; for pH stability: pH 1 to pH 10, 1 μM; for Percent Residual hNE Inhibitory Activity: 1 μM protein
Method: The stability of the proteins to exposure to pH conditions in the range of pH 1 to pH 10 was assessed by maintaining the inhibitors in buffers of defined pH at 37° C. for 18 hours and determining the residual hNE inhibitory activity in the standard hNE-inhibition assay. Proteins were incubated at a concentration of 1 μM. The buffers shown in Table 4 were formulated as described (STOL90) and used in the pH ranges indicated: […]
Proteins were incubated at 37° C. for 18 hours in buffers of defined pH (see text). In all cases protein concentrations were 1 μM. At the end of the incubation period, aliquots of the reactions were diluted and residual hNE-inhibition activity determined.

hNE [5] = molecular target: T3, hNE; assay: Temperature stability, residual inhibitory activity for hNE; format: physicochemical; parameters: Residual hNE Inhibitory Activity: unit not given here; conditions: for Residual hNE Inhibitory Activity: 18 hours, pH 7.0, 1 μM protein; for temperature below which full inhibitory activity is maintained: thirty minutes, 1 μM, phosphate buffer pH=7
Method: The stability of EPI-HNE proteins to temperatures in the range 0° C. to 95° C. was assessed by incubating the inhibitors for thirty minutes at various temperatures and determining residual inhibitory activity for hNE. In these experiments, protein concentrations were 1 μM in phosphate buffer at pH=7. As is shown in Table 40, the four inhibitors are quite temperature stable.
Proteins were incubated at the stated temperature for 18 hours in buffer at pH 7.0. In all cases protein concentrations were 1 μM. At the end of the incubation period, aliquots of the reactions were diluted and residual hNE-inhibition activity determined.

[6] = molecular target: T4, Trypsin (bovine pancreas) (Bos taurus, UniProt P00760); conditions: BPTI P1 derivatives; read-out: Dissociation constant (symbol); cited from earlier work
T4 construct: host or cells: bovine pancreas
T4 sequence (P00760 24-246): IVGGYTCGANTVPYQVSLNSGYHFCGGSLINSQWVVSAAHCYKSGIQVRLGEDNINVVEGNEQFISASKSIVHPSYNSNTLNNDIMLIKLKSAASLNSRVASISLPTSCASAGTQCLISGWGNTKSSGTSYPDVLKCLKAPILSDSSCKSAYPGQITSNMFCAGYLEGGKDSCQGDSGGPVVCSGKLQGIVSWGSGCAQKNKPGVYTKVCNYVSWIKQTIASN

[7] = molecular target: T5, Chymotrypsin (bovine pancreas) (Bos taurus, UniProt P00766); conditions: BPTI P1 derivatives; read-out: Dissociation constant (symbol); cited from earlier work
T5 construct: host or cells: bovine pancreas

[8] = molecular target: T6, Elastase (human leukocytes) (Homo sapiens, UniProt P08246); conditions: BPTI P1 derivatives; read-out: Dissociation constant; cited from earlier work
T6 construct: host or cells: human leukocytes
T6 sequence (P08246 30-267): T3 sequence (P08246 30-267)

[9] = read-out: Dissociation constant

T1 sequence (P00772 27-266): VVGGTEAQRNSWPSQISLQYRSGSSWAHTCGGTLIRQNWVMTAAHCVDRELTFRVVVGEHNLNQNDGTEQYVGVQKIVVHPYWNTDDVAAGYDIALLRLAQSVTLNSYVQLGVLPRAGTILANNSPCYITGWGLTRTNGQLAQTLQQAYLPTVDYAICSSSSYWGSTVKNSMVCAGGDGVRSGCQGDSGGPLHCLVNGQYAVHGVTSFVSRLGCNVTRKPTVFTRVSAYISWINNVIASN

| kon (hNE [2]) | koff (hNE [2]) | Substance | Percent Residual hNE-Inhibitory Activity (hNE [3]; Molar Ratio CHL-T:Inhibitor 0) | pH stability (hNE [4]) | Percent Residual hNE Inhibitory Activity (hNE [4]; Incubation pH 1.0) | Percent Residual hNE Inhibitory Activity (hNE [4]; Incubation pH 2.0) | Percent Residual hNE Inhibitory Activity (hNE [4]; Incubation pH 3.0) | Percent Residual hNE Inhibitory Activity (hNE [4]; Incubation pH 4.0) | Percent Residual hNE Inhibitory Activity (hNE [4]; Incubation pH 6.0) | Percent Residual hNE Inhibitory Activity (hNE [4]; Incubation pH 7.0) | Percent Residual hNE Inhibitory Activity (hNE [4]; Incubation pH 8.0) | Percent Residual hNE Inhibitory Activity (hNE [4]; Incubation pH 9.4) | Percent Residual hNE Inhibitory Activity (hNE [4]; Incubation pH 10.0) | Residual hNE Inhibitory Activity (hNE [5]; Temperature 0 ° C.) | Residual hNE Inhibitory Activity (hNE [5]; Temperature 23 ° C.) | Residual hNE Inhibitory Activity (hNE [5]; Temperature 37 ° C.) | Residual hNE Inhibitory Activity (hNE [5]; Temperature 55 ° C.) | Residual hNE Inhibitory Activity (hNE [5]; Temperature 85 ° C.) | Residual hNE Inhibitory Activity (hNE [5]; Temperature 95 ° C.) | temperature below which full inhibitory activity is maintained (hNE [5]) | other results |
| --- | --- | --- | --- | --- | --- | --- | --- | --- | --- | --- | --- | --- | --- | --- | --- | --- | --- | --- | --- | --- | --- |
|  |  | Bovine pancreatic trypsin inhibitor [BPTI] |  |  |  |  |  |  |  |  |  |  |  |  |  |  |  |  |  |  | Kd ([1]; read-out: Dissociation constant (symbol)): > 3500 nM; inhibition of Cathepsin-G (hCG; SWAI88, ODOM90): lacks; binding of hCG (hCG): does not significantly bind hCG |
| 3.7 10^6/M/s | 7.4 10^−6/s | EPI-HNE-1: BPTI-derived Kunitz domain, SEQ ID NO 007; K15I, R17F, I18F, I19P, R39M, A40G, K41N, R42G | 100% | stable at all pH values tested | 102% | 100% | 100% | 98% | 100% | 93% | 96% | 100% | 98% | 97 | 100 | 100 | 99 | 106 | 64 | below 90 °C | Percent Residual hNE-Inhibitory Activity (hNE [3]; Molar Ratio CHL-T:Inhibitor 1.4): 98%; Percent Residual hNE-Inhibitory Activity (hNE [3]; Molar Ratio CHL-T:Inhibitor 1.9): 102%; Percent Residual hNE-Inhibitory Activity (hNE [3]; Molar Ratio CHL-T:Inhibitor 3.8): 94%; Percent Residual hNE-Inhibitory Activity (hNE [3]; Molar Ratio CHL-T:Inhibitor 9.5): 95%; Percent Residual hNE-Inhibitory Activity (hNE [3]; Molar Ratio CHL-T:Inhibitor 19.): 92%; Percent Residual hNE-Inhibitory Activity (hNE [3]; Molar Ratio CHL-T:Inhibitor .48): 102%; Percent Residual hNE-Inhibitory Activity (hNE [3]; Molar Ratio CHL-T:Inhibitor .95): 100%; Percent Residual hNE Inhibitory Activity (hNE [4]; Incubation pH 2.6): 101%; Percent Residual hNE Inhibitory Activity (hNE [4]; Incubation pH 5.0): 100%; Residual hNE Inhibitory Activity (hNE [5]; Temperature 45 ° C.): 103; Residual hNE Inhibitory Activity (hNE [5]; Temperature 65 ° C.): 94; Residual hNE Inhibitory Activity (hNE [5]; Temperature 75 ° C.): 100 |
| 10.6 10^6/M/s | 49. 10^−6/s | EPI-HNE-4: EPI-HNE-3 with substitution A3E; SEQ ID NO 027 (EACNLPIVRGPCIAFFPRWAFDAVKGKCVLFPYGGCQGNGNKFYSEKECREYCGVP; Epi-HNE-4) | 100% | stable when incubated at low pH, but showed some loss of activity at high pH; also recorded: retains almost full activity to pH 8.5 | 98% | 100% | 96% | 94% | 99% | 93% | 83% | 40% | 34% | 100 | 103 | 98 | 98 | 63 | 48 | below 65 °C | Percent Residual hNE-Inhibitory Activity (hNE [3]; Molar Ratio CHL-T:Inhibitor 1.0): 100%; Percent Residual hNE-Inhibitory Activity (hNE [3]; Molar Ratio CHL-T:Inhibitor 3.0): 100%; Percent Residual hNE-Inhibitory Activity (hNE [3]; Molar Ratio CHL-T:Inhibitor 5.0): 100%; Percent Residual hNE-Inhibitory Activity (hNE [3]; Molar Ratio CHL-T:Inhibitor 10.): 104%; Percent Residual hNE-Inhibitory Activity (hNE [3]; Molar Ratio CHL-T:Inhibitor 30.): 100%; Percent Residual hNE-Inhibitory Activity (hNE [3]; Molar Ratio CHL-T:Inhibitor 50.): 100%; Percent Residual hNE-Inhibitory Activity (hNE [3]; Molar Ratio CHL-T:Inhibitor .50): 100%; hNE-inhibition activity after exposure to Chloramine-T (hNE [3]; all molar ratios tested (up to 50:1 for EPI-HNE-3 and EPI-HNE-4)): retain essentially complete hNE-inhibition activity; Percent Residual hNE Inhibitory Activity (hNE [4]; Incubation pH 5.5): 109%; Percent Residual hNE Inhibitory Activity (hNE [4]; Incubation pH 6.5): 100%; Percent Residual hNE Inhibitory Activity (hNE [4]; Incubation pH 7.5): 109%; Percent Residual hNE Inhibitory Activity (hNE [4]; Incubation pH 8.5): 86%; Residual hNE Inhibitory Activity (hNE [5]; Temperature 69 ° C.): 82 |
|  |  | alanine |  |  |  |  |  |  |  |  |  |  |  |  |  |  |  |  |  |  | Kd [6]: ≥ 3500 nM; Kd [7]: > 3500 nM; Kd [1, 9]: 28 nM; Kd [8]: 2.5 nM |
|  |  | valine |  |  |  |  |  |  |  |  |  |  |  |  |  |  |  |  |  |  | Kd [6]: > 3500 nM; Kd [7]: > 3500 nM; Kd [1, 9]: 57 nM; Kd [8]: 0.11 nM |
